Several values for one entry are separate records, joined by “and”; a condition that tells them apart may be missing. Equal entries are not always repeated. Where two headings read alike, the source gives them in different places.
Columns and labels:
SARS-CoV-2 Spike RBD [1] = biological target: T1, SARS-CoV-2 Spike RBD (SARS-CoV-2, UniProt P0DTC2 319-541)
SARS-CoV-2 Spike RBD [2] = biological target: T1, SARS-CoV-2 Spike RBD
SARS-CoV-2 Spike RBD [3] = biological target: T1, SARS-CoV-2 Spike RBD; remark: listed apart in the source
SARS-CoV-2 Spike RBD [4] = biological target: T1, SARS-CoV-2 Spike RBD; remark: listed apart in the source

Binder | Kd (SARS-CoV-2 Spike RBD [1]) | Kd (SARS-CoV-2 Spike RBD [2]) [nM] | Kd (SARS-CoV-2 Spike RBD [3]) [nM] | Kd (SARS-CoV-2 Spike RBD [4]) | koff (SARS-CoV-2 Spike RBD [4]) [s⁻¹]
RiAFP-HTH.2 (designed binder, also called mBSP-HTH.2; RiAFP-.2) ASRAEARGEAMAEGHSRGSATSHANATGHADARSMSEGNAEAYTEAKGDAMATSEASGEARAQTNADGSAHSSSRTHGRADSTASAKGGKALNDKEAKNKAILNLEEIEEQAKTFLDKFNHEAEDLFYQSSLASWNYNTNITEENVQNMNNAGDKWSAFLKEQSTLAQMYQNEIKRKSEKQEDLKKEMLELEKLGGAMAEGTSDGDAKSYASADGNASAKSMSTGHADATTNAHGTAMADSNAIGEARAETRAEGRAESSSDTDGS | ≥ 41 nM and ≤ 84 nM and 28 nM | 2.1 to 28 | 2.1 | – | –
polymeric RiAFP-HTH.2 fixed to nitrocellulose (designed binder) ASRAEARGEAMAEGHSRGSATSHANATGHADARSMSEGNAEAYTEAKGDAMATSEASGEARAQTNADGSAHSSSRTHGRADSTASAKGGKALNDKEAKNKAILNLEEIEEQAKTFLDKFNHEAEDLFYQSSLASWNYNTNITEENVQNMNNAGDKWSAFLKEQSTLAQMYQNEIKRKSEKQEDLKKEMLELEKLGGAMAEGTSDGDAKSYASADGNASAKSMSTGHADATTNAHGTAMADSNAIGEARAETRAEGRAESSSDTDGS | – | – | – | 0.006 to 0.009 nM and ≤ 0.01 nM | 6e-07 to 9e-07
RiAFP-HTH.1 (designed binder, also called mBSP-HTH.1; RiAFP-HTH.1 construct) ASRAEARGEAMAEGHSRGSATSHANATGHADARSMSEGNAEAYTEAKGDAMATSEASGEARAQTNADGSAHSSSRTHGRADSTASAKTNYNRECGEEQAKTFLDKFNHEAEDLFYQSSLASWNYNTNITEENVQNRNNAGDKRSAFLKEQSTLAQMYGCGSGSAMAEGTSDGDAKSYASADGNASAKSMSTGHADATTNAHGTAMADSNAIGEARAETRAEGRAESSSDTDGS | – | 0.7 to 1.6 | – | – | –

Source: patent US20230174599A1 (University of California, published 2023)
